Literature values as cited in publication PMC3773300 (Journal of inorganic biochemistry, 2013).

Settings: Mb

Q: Which redox potential does the source give for “Mb: Myoglobin, heme protein involved in reversible O2 binding” here?
A: 59 mV
